Measurements taken from patent publication US8349579B2, “Galectin-3 cleavage as a marker for matrix metalloproteinase activity in cancer” (Wayne State University, priority 2007, dated 2013).

Experiments:
[1] = tested on: gelatinolytic activity (MMP) in MCF10 DCIS.com xenograft sections; conditions: DQ gelatin, incubated with EDTA (2 mM in method, 20 mM in FIG. 5 legend)
Method: In situ zymography was performed on the fresh frozen DCIS xenografts as described by Mook et. al. (29). In brief, 8 micron thick cryosections were air dried, rehydrated with PBS for 5 min and overlaid with a solution of 50 μg/ml fluorescein-labeled gelatin (DQ gelatin; Molecular Probes, Eugene, Oreg.), 1% w/v low melting temperature agarose (BioWhittaker Molecular Applications, Rockland, Me.) and 5 μg/ml DAPI (Molecular Probes) in PBS in the presence or absence of 2 mM EDTA and incubated on ice for 15 min followed by incubation in a humidified chamber at 37° C. for 2 hr. Protease catalyzed hydrolysis of the heavily labeled and totally quenched DQ Gelatin relieved the intra-molecular self quenching, yielding brightly fluorescent peptide, which was visualized by using imaging microscope.

[2] = target: T1, MMP-2 (Homo sapiens, UniProt P08253); assay: Cleavage of recombinant galectin-3 proteins by activated MMP-2 (Western blot); format: biochemical; conditions: purified active MMP-2, 15 min, 37° C.
T1 sequence (P08253 110-660): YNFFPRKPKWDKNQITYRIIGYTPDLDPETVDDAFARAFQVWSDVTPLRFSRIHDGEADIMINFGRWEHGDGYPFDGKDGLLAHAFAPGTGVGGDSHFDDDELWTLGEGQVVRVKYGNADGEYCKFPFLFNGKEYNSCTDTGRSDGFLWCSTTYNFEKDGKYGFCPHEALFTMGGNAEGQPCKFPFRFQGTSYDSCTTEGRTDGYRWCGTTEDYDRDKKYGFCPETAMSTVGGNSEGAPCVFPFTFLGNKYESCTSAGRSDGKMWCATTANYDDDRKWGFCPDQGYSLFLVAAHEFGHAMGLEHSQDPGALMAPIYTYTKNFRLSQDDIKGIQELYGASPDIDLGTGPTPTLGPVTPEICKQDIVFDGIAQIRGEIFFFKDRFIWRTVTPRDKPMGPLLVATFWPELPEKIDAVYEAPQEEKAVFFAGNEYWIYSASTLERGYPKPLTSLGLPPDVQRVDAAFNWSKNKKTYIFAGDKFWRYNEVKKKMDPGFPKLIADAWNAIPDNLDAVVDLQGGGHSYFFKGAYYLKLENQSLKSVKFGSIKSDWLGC

[3] = target: MMP-9 (Homo sapiens, UniProt P14780); assay: Cleavage of recombinant galectin-3 proteins by activated MMP-9 (Western blot); format: biochemical; conditions: purified active MMP-9, 60 min, 37° C.
[4] = tested on: MDA-MB-435 tumors; conditions: mice bearing MDA-MB-435 tumors, injection; cited from earlier work

Sequence of MMP-9 (P14780 107-707 limits assumed): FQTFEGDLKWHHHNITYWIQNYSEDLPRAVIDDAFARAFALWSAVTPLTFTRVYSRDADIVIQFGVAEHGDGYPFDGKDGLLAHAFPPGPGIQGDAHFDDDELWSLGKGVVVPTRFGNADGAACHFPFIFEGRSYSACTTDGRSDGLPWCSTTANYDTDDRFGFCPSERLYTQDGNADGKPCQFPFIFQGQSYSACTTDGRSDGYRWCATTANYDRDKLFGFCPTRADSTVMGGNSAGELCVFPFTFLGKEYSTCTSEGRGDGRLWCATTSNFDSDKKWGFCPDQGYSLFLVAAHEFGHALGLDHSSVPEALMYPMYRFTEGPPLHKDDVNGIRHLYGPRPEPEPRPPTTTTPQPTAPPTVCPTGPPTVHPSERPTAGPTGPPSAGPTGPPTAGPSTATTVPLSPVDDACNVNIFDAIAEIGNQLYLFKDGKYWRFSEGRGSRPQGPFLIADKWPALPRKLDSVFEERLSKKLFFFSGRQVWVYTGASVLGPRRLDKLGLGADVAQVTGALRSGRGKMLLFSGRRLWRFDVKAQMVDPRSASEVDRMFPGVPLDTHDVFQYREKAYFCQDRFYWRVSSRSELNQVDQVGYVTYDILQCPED

Row | Molecule | gelatinolytic activity in the stroma [1] | polypeptide produced upon incubation with MMP-2 [2] [kDa] | polypeptide produced upon incubation with MMP-9 [3] [kDa] | tumor growth and metastasis [4]
1 | O=C(O)CN(CCN(CC(=O)O)CC(=O)O)CC(=O)O [EDTA] | abrogated |  |  | 
2 | A33G: recombinant galectin-3 mutant with A33G substitution |  | ~22 | ~22 | 
3 | Wild type galectin-3: recombinant human wild type galectin-3, isolated from a GST fusion protein |  | ~22 | ~22 | 
4 | cleaved galectin-3 peptide containing 108-250 amino acids: cleaved galectin-3 peptide containing 108-250 amino acids, from the literature (ref. 37) |  |  |  | loss of tumor growth and metastasis
